Results as given in PMC5440694 (Nature Communications, 2017).
Changes are numbered by the printed parent chain.

B1: C05 Fab variant VVSSGW, expressed in insect cells (Fab, V domains shown)
VH: QVQLQESGGGLVQPGESLRLSCVGSGSSFGESTLSYYAVSWVRQAPGKGLEWLSIINAGGGDIDYADSVEGRFTISRDNSKETLYLQMTNLRVEDTGVYYCAKHMSMQQVVSSGWERADLVGDAFDVWGQGTMVTVSS
VL: DIQLTQSPSSLSASVGDRVTLTCQASQDIRKFLNWYQQKPGKGPKLLIYDASNLQRGVPSRFSGGGSGTDFTLIISSLQPEDVGTYYCQQYDGLPFTFGGGTKVVIK
B2: C05 Fab variant VTGSGW, expressed in insect cells (Fab, V domains shown)
VH: B1 VH with V111T, S112G
VL: B1 VL

Key:
Assay in all cases: BLI
Details in all cases: both partners purified
[1] = target: biotinylated HA0 ectodomain of A/Solomon Islands/3/2006 (H1N1) (Influenza A virus A/Solomon …, UniProt A7Y8I1, strain, biotin on the BirA biotinylation site)
[2] = target: biotinylated HA0 ectodomain of A/New Caledonia/20/1999 (H1N1) (Influenza A virus A/New …, UniProt Q6WG00, strain, biotin on the BirA biotinylation site)
[3] = target: biotinylated HA0 ectodomain of A/Beijing/262/1995 (H1N1) (Influenza A virus A/Beijing/262/1995 …, UniProt Q6WG01, strain, biotin on the BirA biotinylation site)
[4] = target: biotinylated HA0 ectodomain of A/Panama/2007/1999 (H3N2) (Influenza A virus A/Panama/2007/1999 …, UniProt Q1K9M3, strain, biotin on the BirA biotinylation site)
[5] = target: biotinylated HA0 ectodomain of A/Perth/16/2009 (H3N2) (Influenza A virus A/Perth/16/2009 (H3N2), UniProt C6KNH7, strain, biotin on the BirA biotinylation site)

Row | Binder | Kd [1] [nM] | Kd [2] [nM] | Kd [3] [nM] | Kd [4] [nM] | Kd [5] [nM]
1 | B1 | 4.6 ± 0.6 | 2.9 ± 0.1 | 259 ± 2.8 | 1290 ± 71 | 43.7 ± 0.5
2 | B2 | 116 ± 1.9 | 1.1 ± 0.2 | 182.3 ± 0.5 | 4340 ± 207 | 125.1 ± 1.2
